This note sets out measurements from US20240010696A1 (Pfizer, published 2024).

The target of experiment [1] is human IL-12 receptor on cells (human, UniProt P42701 24-662; Q99665 24-862). Kind of experiment: cell-based or functional assay.
The next experiment deals with T1, human PD1 (human, UniProt Q15116 25-167, limits assumed).
T1 construct: the construct is not described; also called hPD1; programmed cell death protein 1
Briefly: binding kinetics to hPD1, method not stated.

T1 sequence (Q15116 25-167 limits assumed): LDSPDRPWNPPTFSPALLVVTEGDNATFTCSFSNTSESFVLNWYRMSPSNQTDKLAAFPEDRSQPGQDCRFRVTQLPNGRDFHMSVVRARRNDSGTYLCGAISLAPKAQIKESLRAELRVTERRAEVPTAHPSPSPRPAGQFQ
human IL-12 receptor on cells, sequence (Q99665 24-862, chain 2 of 2, other chains not shown): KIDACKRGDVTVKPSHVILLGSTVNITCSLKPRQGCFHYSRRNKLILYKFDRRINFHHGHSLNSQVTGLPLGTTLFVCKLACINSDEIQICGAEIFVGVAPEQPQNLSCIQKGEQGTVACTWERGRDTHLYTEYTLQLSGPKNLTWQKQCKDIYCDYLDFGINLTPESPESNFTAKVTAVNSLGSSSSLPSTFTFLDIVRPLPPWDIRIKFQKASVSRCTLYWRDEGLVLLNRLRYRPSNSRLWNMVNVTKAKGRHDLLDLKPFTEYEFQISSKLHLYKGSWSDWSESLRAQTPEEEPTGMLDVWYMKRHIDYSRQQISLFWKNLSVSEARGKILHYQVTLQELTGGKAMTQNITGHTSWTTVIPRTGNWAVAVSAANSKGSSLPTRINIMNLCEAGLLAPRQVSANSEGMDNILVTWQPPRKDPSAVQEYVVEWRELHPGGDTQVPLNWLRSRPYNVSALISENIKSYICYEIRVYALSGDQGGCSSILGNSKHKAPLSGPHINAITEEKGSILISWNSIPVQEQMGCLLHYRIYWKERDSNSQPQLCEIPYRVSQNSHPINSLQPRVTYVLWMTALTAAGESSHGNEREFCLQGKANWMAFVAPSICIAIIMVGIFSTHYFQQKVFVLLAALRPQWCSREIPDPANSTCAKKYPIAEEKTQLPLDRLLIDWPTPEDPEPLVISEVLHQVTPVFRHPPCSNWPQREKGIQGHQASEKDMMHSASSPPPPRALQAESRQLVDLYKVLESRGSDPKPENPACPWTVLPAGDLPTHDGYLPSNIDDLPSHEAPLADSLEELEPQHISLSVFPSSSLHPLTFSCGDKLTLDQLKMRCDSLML

B1: H10/TPP-76868 fusion protein (other)
heavy 1: EVQLVESGGGLVQPGGSLRLSCAASGFSFGDFDMRWFRQAPGKGLEWVGLIKSRAYLEATEFAASVEGRFTISRDDAKNSAYLQMNSLRAEDTAVYYCTRDSYSSGLLDYWGQGTLVTVSSASTKGPSVFPLAPSSKSTSGGTAALGCLVKDYFPEPVTVSWNSGALTSGVHTFPAVLQSSGLYSLSSVVTVPSSSLGTQTYICNVNHKPSNTKVDKKVEPKSCDKTHTCPPCPAPEAAGAPSVFLFPPKPKDTLMISRTPEVTCVVVDVSHEDPEVKFNWYVDGVEVHNAKTKPREEQYNSTYRVVSVLTVLHQDWLNGKEYKCKVSNKALPAPIEKTISKAKGQPREPQVYTLPPCREEMTKNQVSLSCAVKGFYPSDIAVEWESNGQPENNYKTTPPVLDSDGSFFLVSKLTVDKSRWQQGNVFSCSVMHEALHNHYTQKSLSLSPGK
heavy 2: EVQLVESGGGLVQPGGSLRLSCAASGFSFGDFDMRWFRQAPGKGLEWVGLIKSRAYLEATEFAASVEGRFTISRDDAKNSAYLQMNSLRAEDTAVYYCTRDSYSSGLLDYWGQGTLVTVSSASTKGPSVFPLAPSSKSTSGGTAALGCLVKDYFPEPVTVSWNSGALTSGVHTFPAVLQSSGLYSLSSVVTVPSSSLGTQTYICNVNHKPSNTKVDKKVEPKSCDKTHTCPPCPAPEAAGAPSVFLFPPKPKDTLMISRTPEVTCVVVDVSHEDPEVKFNWYVDGVEVHNAKTKPREEQYNSTYRVVSVLTVLHQDWLNGKEYKCKVSNKALPAPIEKTISKAKGQPREPQVCTLPPSREEMTKNQVSLWCLVKGFYPSDIAVEWESNGQPENNYKTTPPVLDSDGSFFLYSKLTVDKSRWQQGNVFSCSVMHEALHNHYTQKSLSLSPGSGGGGSGGGGSGGGGRNLPVATPDPGMFPCLHHSQNLLRAVSNMLQKARQTLEFYPCTSEEIDHEDITKDKTSTVEACLPLELTKNESCLNSRETSFITNGSCLASRKTSFMMALCLSSIYEDLKMYQVEFKTMNAKLLMDPKRQIFLDQNMLAVIDELMQALNFNSETVPQKSSLEEPDFAKTKIKLCILLHAFRIRAVTIDRVMSYLNAS
light: DIQMTQSPSSLSASVGDRVTITCRASQGISNYLAWFQQKPGKAPKRLIYAAQIPGSGVPSRFSGSGSGTDFTLTISSLQPEDFATYYCLQHYSYPLTFGGGTKVEIKRTVAAPSVFIFPPSDEQLKSGTASVVCLLNNFYPREAKVQWKVDNALQSGNSQESVTEQDSKDSTYSLSSTLTLSKADYEKHKVYACEVTHQGLSSPVTKSFNRGEC
chain: IWELKKDVYVVELDWYPDAPGEMVVLTCDTPEEDGITWTLDQSSEVLGSGKTLTIQVKEFGDAGQYTCHKGGEVLSHSLLLLHKKEDGIWSTLILKDQKEPKNKTFLRCEAKNYSGRFTCWWLTTISTDLTFSVKSSRGSSDPQGVTCGAATLSAERVRGDNKEYEYSVECQEDSACPAAEESLPIEVMVDAVHKLKYENYTSSFFIRDIIKPDPPKNLQLKPLKNSRQVEVSWEYPDTWSTPHSYFSLTFCVQVQGGGGDRVFTDKTSATVICRKNASISVRAQDRYYSSSWSEWASVPCS
Turning to B1, in experiment [1], the “CD4 T cell activation assay PSTAT4 EC50 (ug/ml); Donor #1” value stood at 0.139 µg/mL and the “CD4 T cell activation assay PSTAT4 EC50 (ug/ml); Donor #2” value is 0.998 µg/mL.

B2: H10/TPP-77658 fusion protein (other)
heavy 1: EVQLVESGGGLVQPGGSLRLSCAASGFSFGDFDMRWFRQAPGKGLEWVGTIKSRAYLEATEFAASVEGRFTISRDDAKNSAYLQMNSLRAEDTAVYYCTRDAYSSGLLDYWGQGTLVTVSSASTKGPSVFPLAPSSKSTSGGTAALGCLVKDYFPEPVTVSWNSGALTSGVHTFPAVLQSSGLYSLSSVVTVPSSSLGTQTYICNVNHKPSNTKVDKKVEPKSCDKTHTCPPCPAPEAAGAPSVFLFPPKPKDTLMISRTPEVTCVVVDVSHEDPEVKFNWYVDGVEVHNAKTKPREEQYNSTYRVVSVLTVLHQDWLNGKEYKCKVSNKALPAPIEKTISKAKGQPREPQVYTLPPCREEMTKNQVSLSCAVKGFYPSDIAVEWESNGQPENNYKTTPPVLDSDGSFFLVSKLTVDKSRWQQGNVFSCSVMHEALHNHYTQKSLSLSPGK
heavy 2: EVQLVESGGGLVQPGGSLRLSCAASGFSFGDFDMRWFRQAPGKGLEWVGTIKSRAYLEATEFAASVEGRFTISRDDAKNSAYLQMNSLRAEDTAVYYCTRDAYSSGLLDYWGQGTLVTVSSASTKGPSVFPLAPSSKSTSGGTAALGCLVKDYFPEPVTVSWNSGALTSGVHTFPAVLQSSGLYSLSSVVTVPSSSLGTQTYICNVNHKPSNTKVDKKVEPKSCDKTHTCPPCPAPEAAGAPSVFLFPPKPKDTLMISRTPEVTCVVVDVSHEDPEVKFNWYVDGVEVHNAKTKPREEQYNSTYRVVSVLTVLHQDWLNGKEYKCKVSNKALPAPIEKTISKAKGQPREPQVCTLPPSREEMTKNQVSLWCLVKGFYPSDIAVEWESNGQPENNYKTTPPVLDSDGSFFLYSKLTVDKSRWQQGNVFSCSVMHEALHNHYTQKSLSLSPGSGGGGSGGGGSGGGGRNLPVATPDPGMFPCLHHSQNLLRAVSNMLQKARQTLEFYPCTSEEIDHEDITKDKTSTVEACLPLELTKNESCLNSRETSFITNGSCLASRKTSFMMALCLSSIYEDLKMYQVEFKTMNAKLLMDPKRQIFLDQNMLAVIDELMQALNFNSETVPQKSSLEEPDFAKTKIKLCILLHAFRIRAVTIDRVMSYLNAS
light: DIQMTQSPSSLSASVGDRVTITCRASQGISNYLAWFQQKPGKAPKRLIYAAQIPGSGVPSRFSGSGSGTDFTLTISSLQPEDFATYYCLQHYSYPLTFGGGTKVEIKRTVAAPSVFIFPPSDEQLKSGTASVVCLLNNFYPREAKVQWKVDNALQSGNSQESVTEQDSKDSTYSLSSTLTLSKADYEKHKVYACEVTHQGLSSPVTKSFNRGEC
chain: IWELKKDVYVVELDWYPDAPGEMVVLTCDTPEEDGITWTLDQSSEVLGSGKTLTIQVKEFGDAGQYTCHKGGEVLSHSLLLLHKKEDGIWSTLILKDQKEPKNKTFLRCEAKNYSGRFTCWWLTTISTDLTFSVKSSRGSSDPQGVTCGAATLSAERVRGDNKEYEYSVECQEDSACPAAEESLPIEVMVDAVHKLKYENYTSSFFIRDIIKPDPPKNLQLKPLKNSRQVEVSWEYPDTWSTPHSYFSLTFCVQVQGGGGDRVFTDKTSATVICRKNASISVRAQDRYYSSSWSEWASVPCS
As to B2, in experiment [1], the “CD4 T cell activation assay PSTAT4 EC50 (ug/ml); Donor #1” value was 0.235 µg/mL and the “CD4 T cell activation assay PSTAT4 EC50 (ug/ml); Donor #2” value turned out to be 1.54 µg/mL.

B3: TPP-76868 (antibody, V domains shown)
VH: EVQLVESGGGLVQPGGSLRLSCAASGFSFGDFDMRWFRQAPGKGLEWVGLIKSRAYLEATEFAASVEGRFTISRDDAKNSAYLQMNSLRAEDTAVYYCTRDSYSSGLLDYWGQGTLVTVSS
VL: DIQMTQSPSSLSASVGDRVTITCRASQGISNYLAWFQQKPGKAPKRLIYAAQIPGSGVPSRFSGSGSGTDFTLTISSLQPEDFATYYCLQHYSYPLTFGGGTKVEIK
On to B3, for which, in the experiment with human PD1, the Kd is 3 nM, the koff was determined as 0.000391 s⁻¹, the kon worked out at 135000 M⁻¹ s⁻¹ and the t1/2 is 1770 s (not printed; inferred from ln2/kd).

B4: TPP-77658 (antibody, V domains shown)
VH: EVQLVESGGGLVQPGGSLRLSCAASGFSFGDFDMRWFRQAPGKGLEWVGTIKSRAYLEATEFAASVEGRFTISRDDAKNSAYLQMNSLRAEDTAVYYCTRDAYSSGLLDYWGQGTLVTVSS
VL: DIQMTQSPSSLSASVGDRVTITCRASQGISNYLAWFQQKPGKAPKRLIYAAQIPGSGVPSRFSGSGSGTDFTLTISSLQPEDFATYYCLQHYSYPLTFGGGTKVEIK
Take B4: in the experiment with human PD1, the affinity, expressed as Kd, was 7 nM; the koff was found to be 0.000765 s⁻¹; the kon worked out at 109000 M⁻¹ s⁻¹; the t1/2 is 906 s (not printed; inferred from ln2/kd).

B5: TPP-68807 (antibody, V domains shown)
VH: EVQLVESGGGLVQPGGSLRLSCAASGFSFGDFDMRWFRQAPGKGLEWVGLIKSKAYRYATEFAASVEGRFTISRDDAKNSAYLQMNSLRAEDTAVYYCTRDSYSSGLLDYWGQGTLVTVSS
VL: DIQMTQSPSSLSASVGDRVTITCRASQGISNYLAWFQQKPGKAPKRLIYAASIPGSGVPSRFSGSGSGTDFTLTISSLQPEDFATYYCLQHKSYPLTFGGGTKVEIK
B5: in the experiment with human PD1, the Kd stood at 3 nM, the koff worked out at 0.000251 s⁻¹, the kon is 78500 M⁻¹ s⁻¹ and the t1/2 was 2760 s (not printed; inferred from ln2/kd).

Usually Kd stands for the concentration at which binding is half-saturated. In general, koff refers to the first-order rate constant of dissociation. Lower therefore signals slow dissociation. By kon is commonly meant a measure of how fast the partners come together. A higher kon goes with faster complex formation.
